In US8394929B2, “Nogo receptor-mediated blockade of axonal growth” (Yale University, priority 2000, dated 2013):

How the values were obtained:
3T3 fibroblasts = assay: 3T3 fibroblast spreading; format: cell-based, mouse; conditions: substrate-bound / coated surfaces
Experimental: (a) is a schematic diagram which summarizes features of the Nogo proteins utilized in this study. (b) is a photograph of NIH-3T3 fibroblasts cultured on surfaces coated with Amino-Nogo, GST-Nogo-66 or no protein and stained for filamentous actin (scale bar, 40 μm). (c) is a photograph of chick E12 dorsal root ganglions cultured on surfaces coated with Amino-Nogo, GST-Nogo-66 or no protein (substrate-bound) or with 100 nM Nogo protein (soluble) (scale bar, 40 μm). (d) is a photograph of a gel and an immunoblot where purified Amino-Nogo-Myc-His protein was subjected to SDS-PAGE and stained with Commassie Brilliant Blue (CBB) or immunoblotted with anti-Myc antibodies (Myc) (molecular weight markers of 200, 116, 97, 65 & 45 kDa are at left). (e) is a graph displaying experimental data where the percentage of 3T3 fibroblasts with an area greater than 1200 μm^2 (spread) was measured from experiments as in (b) on Nogo-coated surfaces (black) or with soluble 100 nM Nogo preparations (blue) (AM, Amino-Nogo; AM+Myc, Amino-Nogo preincubated with anti-Myc antibody; AM+Myc+Mo, AM+Myc preincubated with anti-mouse IgG antibody; Myc+Mo, anti-Myc antibody plus anti-murine IgG antibody). (f) is a graph displaying experimental data where the percentage of spread COS-7 cells was determined after culture on Nogo-coated surfaces or with soluble 100 nM Nogo preparations. (g) is a graph displaying experimental data where the effects of purified preparations of GST-Nogo-66 or Amino-Nogo on growth cone morphology was assessed in E12 dorsal root ganglion cultures at the indicated concentrations after thirty minutes. […] (h) is a graph displaying experimental data where the neurite outgrowth per cell in […] dorsal root ganglion cultures was quantitated from experiments as in (c) on Nogo-coated surfaces or with soluble 100 nM Nogo preparations. (i) is a graph displaying experimental data where the effects of Nogo preparations on neurite outgrowth in cerebellar granule neurons was measured.
Assays of Nogo-A function have included growth cone collapse, neurite outgrowth, and fibroblast spreading with substrate-bound and soluble protein preparations (Caroni & Schwab, (1988) J. Cell Biol. 106, 1281-1288; GrandPré et al., (2000) Nature 403, 439-444; Chen et al., (2000) Nature 403, 434-439; Prinjha et al., (2000) Nature 403, 483-484). […] Since NI250 preparations and full length Nogo-A are non-permissive for 3T3 spreading, it was necessary to consider whether different domains of Nogo might subserve this in vitro activity. To facilitate a comparison of different Nogo-A domains, the acidic amino terminal 1040 amino acid fragment (Amino-Nogo) was expressed as a Myc-his tagged protein in HEK293T cells (FIG. 1d). The Nogo protein is present in cytosolic fractions. […]

[1] = system: dorsal root ganglion neurons; assay: Cell survival in GST-Nogo-treated DRG cultures; format: cell-based, chick
From the text: The nanomolar potency is on a par with most known physiologic regulators of axon guidance.

[2] = molecular target: T1, NgR carboxy terminal deletion mutant (NgRΔCT) (Mus musculus, UniProt Q99PI8); assay: Growth cone collapse in E7 retinal ganglion cells infected with NgRΔCT; format: cell-based
T1 construct: expressed in transfected cells; host or cells: chick E7 retinal ganglion cell explants infected with recombinant HSV
T1 sequence (Q99PI8 with tags, fused parts or gaps): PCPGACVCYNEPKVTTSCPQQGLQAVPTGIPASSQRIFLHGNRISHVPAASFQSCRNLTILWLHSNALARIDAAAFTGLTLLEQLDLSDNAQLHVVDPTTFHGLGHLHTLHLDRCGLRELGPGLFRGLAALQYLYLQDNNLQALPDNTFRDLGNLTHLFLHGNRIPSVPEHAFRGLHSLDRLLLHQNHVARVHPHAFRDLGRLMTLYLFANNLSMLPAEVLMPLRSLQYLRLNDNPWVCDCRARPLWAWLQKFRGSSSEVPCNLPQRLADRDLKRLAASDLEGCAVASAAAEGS
Experimental: Because the mouse NgRCT domain was determined to be dispensable for hNogo-A (1055-1120) binding, the ability of NgRΔCT to mediate Nogo-dependent inhibition was examined. HSVNgR constructs transfected into HEK293T cells mediated the expression of mNgR proteins of the predicted molecular weight, as determined by SDS-PAGE and anti-Myc and anti-NgR immunoblotting (FIG. 19A). Day E7 chick retinal ganglion cells (RGCs) were grown for 12 hr, then further incubated for 24 hr with HSVNgR preparations. Explants were fixed with 4% paraformaldehyde with 0.1 M PO4 and 20% sucrose and stained with phalloidin or with anti-myc antibodies. HSVNgR protein expression was detected in axons of infected (RGC) cultures (FIG. 19B).
Growth cone collapse in response to GST-hNogo-A (1055-1120) was investigated in infected RGC cultures. Retinal explants infected with recombinant viral preparations of PlexinA1 (PlexA1), wild-type NgR (wtNgR), NgRL1 chimeric receptor in which the GPI domain has been replaced by the transmembrane region and cytoplasmic tail from the mouse adhesion protein L1 (NgRL1), or NgR carboxy terminal deletion mutant (NgRΔCT) for 12 hr. Following infection, the cells were treated for 30 min with 0, 50, 250, or 500 nM GST-hNogo-A (1055-1120) (GrandPre et al., Nature 403: 439-444, 2000), fixed with 4% paraformaldehyde with 0.1 M PO4 and 20% sucrose, and stained with phalloidin. […]

NgRL1 chimeric receptor = molecular target: T2, NgRL1 chimeric receptor (Mus musculus, UniProt P11627+Q99PI8); assay: Growth cone collapse in E7 retinal ganglion cells infected with NgRL1; format: cell-based
T2 construct: L1NgR encodes residues 1-451 of mouse NgR fused to the transmembrane and cytoplasmic tail of mouse L1; expressed in transfected cells; host or cells: chick E7 retinal ganglion cells infected with recombinant HSVL1NgR
Experimental: Growth cone collapse in response to GST-hNogo-A (1055-1120) was investigated in infected RGC cultures. Retinal explants infected with recombinant viral preparations of PlexinA1 (PlexA1), wild-type NgR (wtNgR), NgRL1 chimeric receptor in which the GPI domain has been replaced by the transmembrane region and cytoplasmic tail from the mouse adhesion protein L1 (NgRL1), or NgR carboxy terminal deletion mutant (NgRΔCT) for 12 hr. Following infection, the cells were treated for 30 min with 0, 50, 250, or 500 nM GST-hNogo-A (1055-1120) (GrandPre et al., Nature 403: 439-444, 2000), fixed with 4% paraformaldehyde with 0.1 M PO4 and 20% sucrose, and stained with phalloidin. […] Cells infected with NgRΔCT were insensitive to GST-hNogo-A (1055-1120). The CT region of NgR is therefore required for effective NgR inhibitory signaling.
To test the signaling capability of NgRLI, recombinant HSVL1NgR preparations were produced and used to infect E7 RGCs. Infected RGCs were treated with GST-hNogo-A (1055-1120) and growth cone collapse was assessed (FIG. 20). […] Because the intracellular signals induced by Nogo have not been elucidated, it remains to be determined if ligand binding effects signaling events at caveolar microdomains.

T2 sequence (Q99PI8+P11627 fused, change not shown): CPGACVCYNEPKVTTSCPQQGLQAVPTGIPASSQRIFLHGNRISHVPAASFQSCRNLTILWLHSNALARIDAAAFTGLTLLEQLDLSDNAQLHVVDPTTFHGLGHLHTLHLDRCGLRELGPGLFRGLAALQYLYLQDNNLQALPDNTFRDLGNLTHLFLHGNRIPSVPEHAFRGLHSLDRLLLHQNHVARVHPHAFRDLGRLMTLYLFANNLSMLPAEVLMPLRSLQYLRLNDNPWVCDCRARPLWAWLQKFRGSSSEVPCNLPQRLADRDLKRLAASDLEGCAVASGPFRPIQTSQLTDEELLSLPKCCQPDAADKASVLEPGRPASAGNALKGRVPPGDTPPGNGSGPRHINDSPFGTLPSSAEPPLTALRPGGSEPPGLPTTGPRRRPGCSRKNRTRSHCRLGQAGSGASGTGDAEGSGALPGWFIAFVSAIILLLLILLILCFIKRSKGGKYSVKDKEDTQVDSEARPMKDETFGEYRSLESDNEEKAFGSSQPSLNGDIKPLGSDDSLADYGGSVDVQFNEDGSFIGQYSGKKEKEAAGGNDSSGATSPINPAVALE

B1: GST-Nogo: GST fusion protein of the 66 amino acid lumenal-extracellular fragment of Nogo-A, expressed in E. coli (protein)
chain: RIYKGVIQAIQKSDEGHPFRAYLESEVAISEELVQKYSNSALGHVNCTIKELRRLFLVDDLVDSLK
modifications: also: GST fusion protein
notes: GST fusion protein of the 66 amino acid lumenal-extracellular fragment of Nogo-A, expressed in E. coli
- 3T3 fibroblast spreading (in words) (3T3 fibroblasts): does not inhibit spreading
- number of neurofilament-positive adherent cells [1]: 137±24 % of GST-treated cultures
- apoptotic nuclei identified by DAPI staining ([1]; GST-Nogo-treated specimens): 5.2±1.1%
- growth cone collapse response (in words) [2]: insensitive
- growth cone collapse response (in words) (NgRL1 chimeric receptor; 50 nM GST-hNogo-A (1055-1120)): not responsive
- growth cone collapse response (in words) (NgRL1 chimeric receptor; high concentrations of GST-hNogo-A (1055-1120)): transduces Nogo signals as efficiently as wtNgR
